Source: patent US20220153832A1 (PIONYR IMMUNOTHERAPEUTICS, published 2022)
Residue numbers refer to the chain shown, from its start. Values belong to the binder of their own block, whether it stands above or below them.

Tests used:
[1] = target: T1, N-terminally polyhistidine tagged human MARCO ECD (147-520), recombinant (human, UniProt Q9UEW3 147-520); assay: ELISA on hMARCO ECD with 2 mM EDTA, A450-A620
T1 construct: also called PI-RG-3000; recombinant human MARCO; not shown: N-terminal polyhistidine tag
T1 sequence: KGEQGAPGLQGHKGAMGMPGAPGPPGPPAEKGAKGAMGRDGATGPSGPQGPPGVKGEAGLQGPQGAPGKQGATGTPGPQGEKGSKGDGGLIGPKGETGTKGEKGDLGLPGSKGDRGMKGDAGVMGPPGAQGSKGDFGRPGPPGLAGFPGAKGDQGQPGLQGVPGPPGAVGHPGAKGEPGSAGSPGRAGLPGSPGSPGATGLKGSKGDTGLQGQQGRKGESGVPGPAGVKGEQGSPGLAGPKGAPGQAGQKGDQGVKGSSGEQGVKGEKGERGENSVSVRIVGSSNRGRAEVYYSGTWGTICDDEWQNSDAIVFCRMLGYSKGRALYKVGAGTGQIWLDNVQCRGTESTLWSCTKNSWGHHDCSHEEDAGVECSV

[2] = target: T1, N-terminally polyhistidine tagged human …; assay: ELISA on hMARCO ECD with 2 mM Ca2+, A450-A620
[3] = target: T1, N-terminally polyhistidine tagged human …; assay: Biacore; deamidation stress sample (40 C 2 week)
[4] = target: T2, Cynomolgus MARCO, full length, on cells (cynomolgus, UniProt A0A2K5X0Z2 1-519); assay: flow cytometry, cells overexpressing cyno MARCO; cyn (second of hu/cyn)
T2 construct: whole, on cells; also called cyno MARCO; CyMARCO
T2 sequence: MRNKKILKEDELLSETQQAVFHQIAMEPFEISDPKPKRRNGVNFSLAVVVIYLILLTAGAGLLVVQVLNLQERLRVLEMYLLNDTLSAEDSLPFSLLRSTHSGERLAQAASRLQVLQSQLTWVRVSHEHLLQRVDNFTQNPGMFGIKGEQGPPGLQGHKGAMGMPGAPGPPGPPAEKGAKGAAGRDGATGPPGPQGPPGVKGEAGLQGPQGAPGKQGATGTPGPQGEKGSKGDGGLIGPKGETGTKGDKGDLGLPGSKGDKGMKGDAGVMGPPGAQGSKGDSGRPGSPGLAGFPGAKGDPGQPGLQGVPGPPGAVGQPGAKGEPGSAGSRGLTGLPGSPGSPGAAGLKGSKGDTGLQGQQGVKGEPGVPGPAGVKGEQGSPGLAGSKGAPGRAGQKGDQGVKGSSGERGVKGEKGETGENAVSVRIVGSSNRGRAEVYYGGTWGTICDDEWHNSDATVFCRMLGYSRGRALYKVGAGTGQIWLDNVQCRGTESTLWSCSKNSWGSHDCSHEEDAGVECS

[5] = target: T3, recombinant cynomolgus MARCO protein (cynomolgus, UniProt A0A2K5X0Z2 65-519); assay: Biacore (SPR), recombinant cyno MARCO
T3 construct: Construct not described; also called cyno MARCO; cynoMARCO
T3 sequence: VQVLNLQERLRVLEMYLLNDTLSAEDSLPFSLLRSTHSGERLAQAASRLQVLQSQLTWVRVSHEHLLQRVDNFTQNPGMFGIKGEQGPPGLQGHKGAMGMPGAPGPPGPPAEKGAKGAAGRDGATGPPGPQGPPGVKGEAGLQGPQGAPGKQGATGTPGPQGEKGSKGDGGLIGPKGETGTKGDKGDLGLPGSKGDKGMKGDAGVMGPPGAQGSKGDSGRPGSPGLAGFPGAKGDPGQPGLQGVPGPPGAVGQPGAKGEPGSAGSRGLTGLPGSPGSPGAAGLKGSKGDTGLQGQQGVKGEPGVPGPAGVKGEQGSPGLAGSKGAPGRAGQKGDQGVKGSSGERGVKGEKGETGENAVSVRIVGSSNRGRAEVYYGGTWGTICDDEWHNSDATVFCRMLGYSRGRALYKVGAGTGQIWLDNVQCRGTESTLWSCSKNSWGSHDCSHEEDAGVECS

[6] = target: T1, N-terminally polyhistidine tagged human …; assay: Biacore (SPR), recombinant human MARCO
In short: (§1)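 Binding kinetics and affinity of antibodies for the N-terminally His-tagged human MARCO extracellular domain (147-520) were determined by surface plasmon resonance with multi-cycle kinetics on a Biacore T200. The antibodies were captured on a CM4 chip carrying amine-coupled anti-mouse Fc mAb (4500 RU target), and the runs were done at 25° C in 10 mM HEPES pH 7.4, 150 mM NaCl, 3 mM EDTA, 0.05% surfactant P20. The analyte was injected at 0.625–10 nM with 90 s association and 600 s dissociation, and the constants were fitted in BIAevaluation 3.1.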

[7] = target: T1, N-terminally polyhistidine tagged human …; assay: ELISA readout A450-A620; the panel names no target, the legend says MARCO expressing cells; transiently made reference antibody
[8] = target: T1, N-terminally polyhistidine tagged human …; assay: Biacore (SPR), binding affinity to human MARCO
In short: as §1

[9] = target: T1, N-terminally polyhistidine tagged human …; assay: Biacore; sample stressed 40 C 2 week
Description: Binding of the stressed samples to recombinant human MARCO was assessed by Biacore.

[10] = target: T1, N-terminally polyhistidine tagged human …; assay: Biacore, recombinant human MARCO; control sample
[11] = target: T1, N-terminally polyhistidine tagged human …; assay: Biacore; isomerization/fragmentation stress sample
[12] = target: T4, Human Macrophage Receptor with Collagenous Structure (MARCO), full length, on cells (human, UniProt Q9UEW3 1-520); assay: flow cytometry, cells overexpressing human MARCO; hu (first of hu/cyn)
T4 construct: the cell type is named under assay; also called huMARCO; HuMARCO
T4 sequence: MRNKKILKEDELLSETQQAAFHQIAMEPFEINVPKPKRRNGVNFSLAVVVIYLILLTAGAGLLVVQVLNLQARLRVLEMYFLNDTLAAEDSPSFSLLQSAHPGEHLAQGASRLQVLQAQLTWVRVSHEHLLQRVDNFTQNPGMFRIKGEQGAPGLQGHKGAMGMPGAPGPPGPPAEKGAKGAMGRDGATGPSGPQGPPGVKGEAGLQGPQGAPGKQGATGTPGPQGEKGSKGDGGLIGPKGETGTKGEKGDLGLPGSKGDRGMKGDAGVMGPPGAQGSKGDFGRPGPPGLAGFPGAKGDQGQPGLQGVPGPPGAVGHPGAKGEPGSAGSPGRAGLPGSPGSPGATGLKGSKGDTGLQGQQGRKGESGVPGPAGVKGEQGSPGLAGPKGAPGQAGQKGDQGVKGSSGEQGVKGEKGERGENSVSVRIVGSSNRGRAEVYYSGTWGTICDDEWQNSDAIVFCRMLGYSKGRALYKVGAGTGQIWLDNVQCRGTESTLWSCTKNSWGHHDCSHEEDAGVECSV

[13] = target: T1, N-terminally polyhistidine tagged human …; assay: ELISA readout A450-A620; the panel names no target, the legend says MARCO expressing cells; stable transfection pools
[14] = target: T2, Cynomolgus MARCO, full length, on cells; assay: flow cytometry, cells overexpressing cyno MARCO
[15] = target: T4, Human Macrophage Receptor with …; assay: flow cytometry, cells overexpressing human MARCO
[16] = target: T4, Human Macrophage Receptor with …; assay: cell-based competition with AF488 E. coli binding to cells expressing MARCO
Description: Zombie NIR viability dye (BioLegend), prepared by diluting the stock 1000-fold in D-PBS, was added to the cells and incubated for 10 min at RT in the dark. The reaction was quenched by adding 1 m of 4× Staining buffer (2% FBS in DBPS containing Ca2+), followed by centrifugation at 400×g for 5 min at 4° C. Cells were then plated in V-shaped 96 well plates at a density of 100,000 cells. A488-fluorescently labeled bacteria (E. coli from Invitrogen) was added at 10 μg/ml with the anti-human MARCO antibodies of interest for a 30 min incubation at 37 C. Plates were then washed twice followed by resuspension in 100 ul of staining buffer for acquisition on the flow cytometer (Attune NxT, Life Technologies). Flow cytometry data were analyzed using FlowJo software (version 10.6.1) and data were processed and further analyzed in Microsoft Excel and GraphPad Prism software (version 8).

[17] = target: T3, recombinant cynomolgus MARCO protein; assay: SPR, single cycle (sc)
[18] = target: T1, N-terminally polyhistidine tagged human …; assay: SPR, single cycle (sc)

- EC50 (read off the curve) [1]: ~0.2 nM
- EC50 (read off the curve) [2]: ~0.9 nM
B1: PI-3032-AB (antibody, human IgG1, kappa, V domains shown)
VH: EVQLVESGGGLVQPGGSLRLSCAASKFTFSNYGMNWIRQAPGKGLEWIALIYYNSNNKYYADSVKGRFTISRDNSKNTLYLQMNSLRAEDTAVYYCAKSLTGGSDYFDSWGQGTLVTVSS
VL: DIQMTQSPSSLSASVGDRVTITCRASKSIGTFLAWYQQKPGKAPKLLIYSGSTLESGVPSRFSGSGSGTDFTLTISSLQPEDFATYYCQQHDEYPFTFGQGTKLEIKR
notes: calcium independent

- Kd [3]: 0.39 nM
- EC50 [4]: 1.03 nM
- Kd [5]: 1.12 nM
- Kd [6]: 0.82 nM
- koff [6]: 0.000334 s⁻¹
- EC50 (read off the curve) [7]: ~0.2 nM
- Kd [8]: 0.82 nM
- Kd [9]: 0.36 nM
- Kd [10]: 0.24 nM
- Kd [11]: 0.34 nM
- EC50 [12]: 0.704 nM
- EC50 (read off the curve) [2]: ~0.8 nM
- EC50 (read off the curve) [13]: ~0.2 nM
B2: PI-3041-AB (antibody, human IgG1, kappa)
heavy: not shown
light: DIQMTQSPSSLSASVGDRVTITCRASAGISNDLAWYQQKPGKAPKLLIYAASRLQDGVPSRFSGSGSGTDFTLTISSMQPEDFATYYCQQSYKYPWTFGQGTKLEIKRTVAAPSVFIFPPSDEQLKSGTASVVCLLNNFYPREAKVQWKVDNALQSGNSQESVTEQDSKDSTYSLSSTLTLSKADYEKHKVYACEVTHQGLSSPVTKSFNRGEC
notes: Humanized PI-HX-3011, hIgG1

- EC50 [14]: 1.4 nM
- EC50 [15]: 0.57 nM
- EC50 [16]: 0.12 nM
- Kd [17]: 0.735 nM
- Kd [18]: 1.13 nM
B3: PI-3012-AB (antibody, human IgG1, kappa, V domains shown)
VH: QVQLQESGPGLVKPSETLSLTCTVSGFSLTSYHVSWVRQPPGKGLEWIGAIWTGGSIAYNPSLKSRVTISRDTSKNQVSLKLSSVTAADTAVYYCARDLSDYYSSYTSFDYWGQGTLVTVSS
VL: DIQMTQSPSSLSASVGDRVTITCRASEGISNDLAWYQQKPGKAPKLLIYAASRLQSGVPSRFSGSGSGTDYTLTISSLQPEDFATYYCQQSYKYPLTFGQGTKLEIKR

- Kd [3]: 0.66 nM
- EC50 [4]: 1.01 nM
- Kd [5]: 1.79 nM
- Kd [6]: 1.09 nM
- koff [6]: 0.00043 s⁻¹
- EC50 (read off the curve) [7]: ~0.2 nM
- Kd [8]: 1.09 nM
- Kd [9]: 0.58 nM
- Kd [10]: 0.54 nM
- Kd [11]: 0.66 nM
- EC50 [12]: 0.79 nM
- EC50 (read off the curve) [2]: ~1 nM
- EC50 (read off the curve) [13]: ~0.2 nM
B4: PI-3025-AB (antibody, human IgG1, kappa)
heavy: not shown
light: B2 light with A27E, F71Y, M78L, W96L
notes: also called PI-3025-AB2
